Series [1] concerns the target T1, RyR (Mus musculus, UniProt E9Q401).
T1 construct: incubation with 100 μM of the RyR antagonist ryanodine for 1 h in the HT-22 culture media; endogenous in cells; host or cells: HT-22 (mouse hippocampal cell line)
As to the kind of experiment: Tg-induced Ca2+ release from stores in Fluo3-loaded HT-22 cells with the RyR antagonist ryanodine. The format is cell-based. The settings on record: 2 μM Aβ(1-42) 2 h plus 100 μM ryanodine. The method, then: Cytosolic Ca^2+ imaging was assessed in the HT-22 cell culture with the fluorescent probe Fluo3-AM. […] The untread cells were regarded as the controls. […] Then, the cells were washed once with 1 mL of MLocke’s K5 buffer, and the 35 mm culture dishes were placed in the thermostatic plate at 37 °C (Warner Instrument Co., Hamden, CT, USA) of the Nikon Diaphot 300 inverted epifluorescence microscope (Tokyo, Japan) with an NCF Plan ELWD 40× objective (the pixel size of the images shown in this work was 0.2 μm). The images of the Fluo3-loaded cells were acquired with the Hamamatsu Orca-R^2 CCD camera (binning mode 2 × 2) with an excitation filter of 470 nm, a dichroic mirror of 510 nm with an emission filter of 520 nm, and a 0.3 s exposure time. […] The depletion of the Ca^2+ stores was triggered by adding 2 μM of the SERCA pump blocker Tg plus ethylene glycol tetraacetic acid (1 mM), in a Ca^2+-free Mlocke’s K5 buffer. Then, the SOCE was measured after the addition of 3 mM of CaCl2 to the Tg-containing medium. […] The activity of the RyR Ca^2+-leak channels was evaluated by incubation with 100 μM of the RyR antagonist ryanodine for 1 h in the HT-22 culture media. In all experiments with antagonists, we performed the respective dimethylsulfoxide vehicle controls.

Series [2] addresses T2, STIM1 (Mus musculus, UniProt P70302).
T2 construct: endogenous in cells; host or cells: HT-22 cell lysate
Nature of the series: Co-immunoprecipitation of STIM1 with anti-Aβ antibody from HT-22 lysates, Western blot. The class given is binding. The settings on record: 250 nM Aβ(1-42), HT-22 cell lysates. How it is done:
The HT-22 cells were lysed in a buffer: 25 mM of Tris(hydroxymethyl)aminomethane–HCl, pH 7.4, 150 mM of NaCl, 5 mM of ethylenediaminetetraacetic acid, 50 mM of NaF, 5 mM of NaVO3, 0.25% of Triton X-100, and 5 mM of methyl-β-cyclodextrin, supplemented with 1× […]^TM protease inhibitor cocktail. After cell centrifugation at 2000× g for 2 min at 4 °C, the supernatant was collected and supplemented with 50% glycerol. Bradford’s method was used to measure the protein concentration in HT22 lysates using the bovine serum albumin as the standard. The co-immunoprecipitation was carried out using the protein A/G PLUS-Agarose, following the instructions described by the manufacturer in the technical data sheet. […] Then, 10 μg of mouse anti-β-amyloid antibody was added to the Eppendorf tube and incubated for 1 h at 4 °C with continuous gentle shaking. Afterward, 50 μL of protein A/G PLUS-Agarose was added and incubated overnight at 4 °C with continuous shaking. […] The agarose beads were precipitated by centrifugation at 2500× g for 5 min at 4 °C in a refrigerated Eppendorf microcentrifuge. […] A centrifugation step (2500× g, 5 min at 4 °C) was performed in a refrigerated Eppendorf microcentrifuge after each washing step. […]
(In general: In western blotting, separated proteins are transferred to a membrane and probed.)

The subject of series [3] is HT-22 cells. As to the kind of experiment: Internalization of Aβ(1-42) in living HT-22 cells (red fluorescence of Aβ(1-42)*555, calibration curve). The format is cell-based, mouse. Particulars: 2 μM Aβ(1-42) total (unlabeled plus Aβ(1-42)*555) in culture medium, 37 °C, 5% CO2, red fluorescence microscopy, calibration with Aβ(1-42)*555 in fixed permeabilized cells, mean ± SEM. The method, then: Then, the cells were washed once with 1 mL of MLocke’s K5, and the 35 mm dishes were placed in the holder of the microscope at 37 °C for RF imaging. The fluorescence microscopy images of the HT-22 cells were acquired with a Hamamatsu Orca-R^2 CCD camera (binning mode 2 × 2) camera (Hamamatsu, Hamamatsu-city, Japan) attached to a Nikon Diaphot 300 epifluorescence microscope (Tokyo, Japan) with an NCF Plan ELWD 40× objective, using an excitation filter of 556 nm and a dichroic mirror of 580 nm with an emission filter of 590 nm, and a 0.06 s exposure time. The ROI tool of the HCImage software was used for the quantitative analysis. The average fluorescence intensity readings per pixel in HT-22 cells were taken from several fields for a total number of 80 cells and after the subtraction of the autofluorescence. […]
Supplementary Figure S1. Calibration data were obtained with […]
medium of fixed and permeabilized HT-22 cells to calculate the internalized concentration of Aβ(1–42) in living HT-22 cells. The […]
monomers/L. The results shown are the mean ± SEM of
(also on this page, place not known: Fluorescence Intensity per pixel (A.U.))

Series [4] deals with HT-22 cells. Nature of the series: Mitochondrial membrane potential, TMRE assay. The format is cell-based, mouse. Particulars: 2 μM Aβ(1-42), 2 h or 5 h; p > 0.05. The method, then: Mitochondrial depolarization was monitored with the fluorescent dye TMRE, as previously described, with small changes. […] Then, the HT-22 culture dishes were placed in the thermostatic plate at 37 °C of the inverted epifluorescence microscope and the fluorescence kinetic was recorded at 556 nm excitation filter and a dichroic mirror of 580 nm with an emission filter of 590 nm and a time of exposure 0.01 s. To assess the level of the mitochondrial membrane depolarization, 5 μM of a potent mitochondrial oxidative phosphorylation uncoupler FCCP was added to the medium. The region of interest (ROI) tool of the HCImage software was used for the quantitative analysis. The average fluorescence intensity readings per pixel in the HT-22 cells were taken from several fields for a total number of 80 cells.

The test system of series [5] is HT-22 cells. As to the kind of experiment: Intracellular ROS, H2DCFDA oxidation. Particulars: 2 μM Aβ(1-42), 10 μM H2DCFDA, p < 0.05. The format is cell-based, mouse. The method, then:
For the detection of intracellular ROS levels, we measured the oxidation of H2DCFDA to the fluorescent compound dichlorofluorescein, as previously described, with minor modifications. […] Then, 10 μM of H2DCFDA was added to the medium and the fluorescence intensity was recorded every 15 s for 10 min with an excitation filter of 470 nm, and 510 nm dichroic mirror/520 nm emission filter, using an exposure time of 0.2 s.

Results on one substance are retold here after article PMC9604325 (International Journal of Molecular Sciences, 2022).

T2 sequence (P70302 23-685): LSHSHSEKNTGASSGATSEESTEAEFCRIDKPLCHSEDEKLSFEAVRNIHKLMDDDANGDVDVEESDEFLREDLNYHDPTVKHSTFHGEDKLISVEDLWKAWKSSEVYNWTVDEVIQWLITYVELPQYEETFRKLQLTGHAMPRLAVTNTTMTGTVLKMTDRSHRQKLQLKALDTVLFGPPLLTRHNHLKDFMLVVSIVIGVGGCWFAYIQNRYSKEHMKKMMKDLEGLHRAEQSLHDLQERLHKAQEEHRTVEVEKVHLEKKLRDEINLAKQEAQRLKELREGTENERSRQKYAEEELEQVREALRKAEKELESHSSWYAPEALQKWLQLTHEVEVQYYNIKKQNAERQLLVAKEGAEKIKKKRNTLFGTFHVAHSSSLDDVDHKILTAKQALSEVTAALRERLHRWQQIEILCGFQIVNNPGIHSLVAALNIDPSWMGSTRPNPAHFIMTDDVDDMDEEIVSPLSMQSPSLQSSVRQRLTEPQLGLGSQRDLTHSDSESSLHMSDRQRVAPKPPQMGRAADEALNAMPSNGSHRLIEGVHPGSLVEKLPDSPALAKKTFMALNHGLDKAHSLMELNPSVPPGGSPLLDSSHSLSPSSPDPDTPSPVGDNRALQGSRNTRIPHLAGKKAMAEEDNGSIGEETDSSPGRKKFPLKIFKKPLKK

As for “Aβ(1-42): Unlabeled amyloid β peptide (1-42), synthesized and supplied by StabVida”, in series [1], the “Tg-induced Ca2+ released from the stores, compared with cells treated only with Aβ(1-42)” value is “three-fold higher”. Further, the “STIM1 co-immunoprecipitation with anti-Aβ(1-42) antibody” value in series [2] is given as “formation of STIM1-Aβ complexes”. Further, the “concentration of internalized Aβ(1-42) monomers” value in series [3] (2 h) is 62 ± 11 nM; in series [3] (5 h) it was 135 ± 15 nM. Moreover, the “mitochondria membrane potential (TMRE ΔF/F0 before/after FCCP) versus control” value in series [4] is recorded as “not altering the mitochondria membrane potential”. In addition, the figures for the “increase in ROS production compared with untreated cells” value in series [5] (2 h) and in series [5] (5 h) were 1.3 fold and 1.7 fold, respectively.
